B1: TPR t1 (parent)
chain: GACCAAUCUGCCCUCAGAGCUCGAGAACAUCUUCGGAUGCAGAGGAGGCAGGCUUCGGUGGCGCGAUAGCGCCAACGUCCUCAACCUCCAAUGCAUCCCACCACAUGAUGAUGCCUGAAGAGCCUUGGUUUUUUG

Variants of: B1
Assay: polymerase ribozyme fitness, log enrichment relative to wild type (log ratio); higher = more active; in vitro selection for triplet polymerase activity
Outline: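 Genotype fitness is the logarithm of its enrichment divided by wild-type enrichment, using inverse-variance-weighted averages of replicates. That logarithm is base 2. Enrichment was measured by Illumina sequencing of input and output libraries from one triplicate in vitro selection round, with frozen incubation at −7 °C, on PCR-built, transcribed mutant libraries of each subunit of a heterodimeric triplet polymerase ribozyme, retaining genotypes with ≥10 input reads and ≥1 read per output.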

Variant | polymerase ribozyme fitness (log ratio)
C94A A95C U131G | -2.37
G93U A121U U131G | 0.33
C82A C94U C98U U106C | -2.21
C88A G107A | -5.92
C89A G110U | -3.66
C89A G110A | -3.58
A84U U131G | -0.716
C82A G127A | -2.18
A91G G113U | -3.39
G93C G117A | -1.09
U87C A90C C115A | -0.371
U87A C99A C115G G122U C124G | -7.12
C88G U96A | -2.61
A84C U116G | -1.83
A83U C85A U112A C114A | -3.32
G93C U131A | -1.05
G93C U131G | -1.28
C88A C102A G107A A111C U116G C123G U125A | -6.39
U92A G113C | -3.49
U92A G113A | -2.8
A84C U130C | -0.28

Variant | polymerase ribozyme fitness (log ratio)
A84U C114A U131A | -0.993
A84U A105C U116C | -5.74
U81G U125A U131G | -4.64
C85U C101G C115A | -2.93
A90U G113U | -2.89
U92C G128C | -3.41
A91C U112A C123A G128C | -3.53
A84U C94A C115A | -1.46
G93C C124U U125C | -1.05
G93C G122A | -0.79
U87A A121C | 1.23
U87A A121G | 1.17
U87A U130C | -1.39
C82U U96A U109C | -5.99
A83G G120U C124A G135A | 0.857
C85U C101A C104A | -3.57
U92A U130G U131G | -5.8
U81G C94U A121G | -2.71
A84G C98A | -6.26
A83C G120A | 0.209
C89U U133G | -0.403

Variant | polymerase ribozyme fitness (log ratio)
C85A C124A U126G | -0.918
U81G G110A | -6.43
U92G A121G | -0.555
G93U C101A G113U G117A | -6.98
C82U C88A | -0.557
C86U C114A | -1.71
C86U G110A | -2.37
U92A A111G U129C U132C | -3.54
C85G C124G U126G | -0.338
G93C G120A U130C | 0.452
C94A A105C | -4.8
C94A A105U | -3.27
C86G A108G U130A | -3.28
A83G C97U U109A | -5.36
C88A U92A G113A | -3.73
C86U C89U | -0.118
A90U A103U U106C | -5.93
A90C C114U G128U | -4.34
A91C C114U | -3.62
G93U C104A | -2.9
C82G C115A C123A | -1.32

Variant | polymerase ribozyme fitness (log ratio)
C89G U106A G120C G122C | -1.85
C82A A118G A121G | 1.48
U92A U112C A121C | -0.365
C88U C97U | -1.02
C88G C104U C123G | 1.53
A84U A90G C98G U109A A121U | -3.5
C86G U126C | -1.74
C89A A100U C115G | -5.22
C88A G117U | -2.84
C82U C86A C97A | -4.95
C82G C114U | -2.95
U87G A103C | -5.65
A84U C97U | -0.894
G93A U132A G135U | -0.722
U92A C114U | -3.08
C82A G122A | -0.963
C86U C88U | 0.0768
A90C G117U | -3.98
A84U C88A | -1.4
C86A A121G | 1.66
C89U U92G | -1.82
